Test results reported in patent publication US20130177579A1 (BIOALLIANCE C V, published 2013).
Each block holds one binder with its values, some of them ahead of it.

Experiments:
[1] = target: human transferrin receptor expressed by nonhematopoietic cancer cells (human) (UniProt P02786); assay: FACS, H727 cells, 1x
[2] = target: human transferrin receptor expressed by nonhematopoietic cancer cells (human) (UniProt P02786); assay: FACS, WiDr cells, 1x
[3] = target: human transferrin receptor expressed by nonhematopoietic cancer cells (human) (UniProt P02786); assay: FACS, DLD-1 cells, 1x
[4] = target: human transferrin receptor expressed by nonhematopoietic cancer cells (human) (UniProt P02786); assay: FACS, DU145 cells, 1x
[5] = target: human transferrin receptor expressed by nonhematopoietic cancer cells (human) (UniProt P02786); assay: FACS, OMC-3 cells, 1x
[6] = target: human transferrin receptor expressed by nonhematopoietic cancer cells (human) (UniProt P02786); assay: FACS, H727 cells, 1/5X
[7] = target: human transferrin receptor expressed by nonhematopoietic cancer cells (human) (UniProt P02786); assay: FACS, SNU-16 cells, 1x
[8] = target: human transferrin receptor expressed by nonhematopoietic cancer cells (human) (UniProt P02786); assay: FACS, COLO205 cells, 1x
[9] = target: human transferrin receptor expressed by nonhematopoietic cancer cells (human) (UniProt P02786); assay: FACS, HEC-1-A cells, 1x
[10] = target: human transferrin receptor expressed by nonhematopoietic cancer cells (human) (UniProt P02786); assay: FACS, NCI-N87 cells, 1x
[11] = target: human transferrin receptor expressed by nonhematopoietic cancer cells (human) (UniProt P02786); assay: FACS, SK-OV-3 cells, 1x
[12] = target: human transferrin receptor expressed by nonhematopoietic cancer cells (human) (UniProt P02786); assay: FACS, Kato III cells, 1x
[13] = target: human transferrin receptor expressed by nonhematopoietic cancer cells (human) (UniProt P02786); assay: FACS, SU.86.86 cells, 1x
[14] = target: human transferrin receptor expressed by nonhematopoietic cancer cells (human) (UniProt P02786); assay: FACS, NCI-N87 cells, 1/5X
[15] = target: human transferrin receptor expressed by nonhematopoietic cancer cells (human) (UniProt P02786); assay: FACS, SK-OV-3 cells, 1/5X
[16] = target: human transferrin receptor expressed by nonhematopoietic cancer cells (human) (UniProt P02786); assay: FACS, MDA-MB-453 cells, 1x
[17] = target: human transferrin receptor expressed by nonhematopoietic cancer cells (human) (UniProt P02786); assay: FACS, Panc02.03B cells, 1x
[18] = target: human transferrin receptor expressed by nonhematopoietic cancer cells (human) (UniProt P02786); assay: FACS, WiDr cells, 1X
[19] = target: human transferrin receptor expressed by nonhematopoietic cancer cells (human) (UniProt P02786); assay: FACS, KLE cells, 1/5X
[20] = target: human transferrin receptor expressed by nonhematopoietic cancer cells (human) (UniProt P02786); assay: FACS, OMC-3 cells, 1X
[21] = target: human transferrin receptor expressed by nonhematopoietic cancer cells (human) (UniProt P02786); assay: FACS, SNU-16 cells, 1X
[22] = target: human transferrin receptor expressed by nonhematopoietic cancer cells (human) (UniProt P02786); assay: FACS, COLO205 cells, 1X
[23] = target: human transferrin receptor expressed by nonhematopoietic cancer cells (human) (UniProt P02786); assay: FACS, NCI-N87 cells, 1X
[24] = target: human transferrin receptor expressed by nonhematopoietic cancer cells (human) (UniProt P02786); assay: FACS, Kato III cells, 1X
[25] = target: human transferrin receptor expressed by nonhematopoietic cancer cells (human) (UniProt P02786); assay: FACS, MDA-MB-453 cells, 1X
[26] = target: human transferrin receptor expressed by nonhematopoietic cancer cells (human) (UniProt P02786); assay: FACS, Panc02.03B cells, 1X
[27] = target: human transferrin receptor expressed by nonhematopoietic cancer cells (human) (UniProt P02786); assay: FACS, A549 cells, 1X
[28] = target: human transferrin receptor expressed by nonhematopoietic cancer cells (human) (UniProt P02786); assay: FACS, DU145 cells, 1X
[29] = target: human transferrin receptor expressed by nonhematopoietic cancer cells (human) (UniProt P02786); assay: FACS, A549 cells, 1/5X
[30] = target: human transferrin receptor expressed by nonhematopoietic cancer cells (human) (UniProt P02786); assay: FACS, Panc-1 cells, 1X
[31] = target: human transferrin receptor expressed by nonhematopoietic cancer cells (human) (UniProt P02786); assay: FACS, SK-OV-3 cells, 1X
[32] = target: human transferrin receptor expressed by nonhematopoietic cancer cells (human) (UniProt P02786); assay: FACS, Panc-1 cells, 1/5X

Chain of human transferrin receptor expressed by nonhematopoietic cancer cells (human) (P02786 whole entry G142S): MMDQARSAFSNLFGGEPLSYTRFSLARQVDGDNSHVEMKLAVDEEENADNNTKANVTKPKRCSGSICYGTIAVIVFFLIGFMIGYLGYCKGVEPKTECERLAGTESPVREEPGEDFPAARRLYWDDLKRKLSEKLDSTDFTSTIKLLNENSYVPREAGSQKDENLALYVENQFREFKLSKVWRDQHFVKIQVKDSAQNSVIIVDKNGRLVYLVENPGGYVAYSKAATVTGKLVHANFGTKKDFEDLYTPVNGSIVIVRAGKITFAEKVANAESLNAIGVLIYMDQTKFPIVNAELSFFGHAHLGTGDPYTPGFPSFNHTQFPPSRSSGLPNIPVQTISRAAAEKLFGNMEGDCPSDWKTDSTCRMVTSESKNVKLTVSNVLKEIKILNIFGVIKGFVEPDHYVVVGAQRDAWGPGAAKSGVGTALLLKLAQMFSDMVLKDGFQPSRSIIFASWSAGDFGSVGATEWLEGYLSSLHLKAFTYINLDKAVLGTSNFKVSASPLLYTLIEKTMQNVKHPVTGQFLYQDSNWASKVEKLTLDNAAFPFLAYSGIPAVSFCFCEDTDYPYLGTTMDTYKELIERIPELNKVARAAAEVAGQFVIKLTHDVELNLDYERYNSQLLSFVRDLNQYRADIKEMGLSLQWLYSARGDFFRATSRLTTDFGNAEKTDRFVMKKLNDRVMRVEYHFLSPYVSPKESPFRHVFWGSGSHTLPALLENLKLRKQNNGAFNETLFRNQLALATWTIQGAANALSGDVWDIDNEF

MFI [1]: 623 MFI
MFI [2]: 2480 MFI
MFI [3]: 2500 MFI
MFI [4]: 51 MFI
MFI [5]: 3460 MFI
MFI [6]: 319 MFI
MFI [7]: 4150 MFI
MFI [8]: 6660 MFI
MFI [9]: 72 MFI
MFI [10]: 3940 MFI
MFI [11]: 467 MFI
MFI [12]: 613 MFI
MFI [13]: 5070 MFI
MFI [14]: 4300 MFI
MFI [15]: 381 MFI
MFI [16]: 53 MFI
MFI [17]: 4690 MFI
B1: antibody 122-72 (antibody, V domains shown)
VH: EVQLVESGGGLVQPKGSLKLSCAASGFTFNTYAMNWVRQAPGKGLEWVARIRSKSNNYATYYADSVKDRFTISRDDSQSMLYLQMNNLKTEDTAMYYCVAYGSRNYWGQGTTLTVSS
VL: DIVMTQSPSSLTVTAGEKVTMSCKSSQSLLNSGNQKNYLTWYQQKPGQPPKLLIYWASTRESGVPDRFTGSGSGTDFTLTISSVQAEDLAVYYCQNDYSYPYTFGGGTKLEIKR
notes: Mouse IgM, kappa from a hybridoma; tested as hybridoma culture supernatant; Antibody 60-43 is said to have the same CDRs

MFI [18]: 1420 MFI
MFI [19]: 556 MFI
MFI [20]: 3140 MFI
MFI [21]: 4750 MFI
MFI [22]: 7090 MFI
MFI [23]: 5810 MFI
MFI [24]: 1410 MFI
MFI [14]: 5100 MFI
MFI [25]: 147 MFI
MFI [26]: 5910 MFI
B2: antibody 6-90 (antibody, mouse IgM, V domains shown)
VH: EVELQQFGIEMVKPGASVKISCKASGYIFTDYHMDWVRQSHGKSLEWIGDIDPKYDRVTYNQKFKGKASLTADKSSSTAYMELRSLTSEDTAVYYCAKTGAYGDYLAYWGQGTLVTVSA
VL: DLVMTQTPLSLPVSLGDQASISCRSSQSLVHSDGNTYFYWYLQKPGQSPKLLIYKVSNRFSGVPDRFSAGGSGTYFTLKISRVEAEDLGVYFCSQTTHFPPTFGGGTKLEIKR
notes: Mouse IgM, kappa from a hybridoma; tested as hybridoma culture supernatant

MFI [27]: 897 MFI
MFI [28]: 2280 MFI
MFI [19]: 87 MFI
MFI [20]: 214 MFI
MFI [29]: 711 MFI
MFI [30]: 773 MFI
MFI [31]: 2370 MFI
MFI [24]: 140 MFI
MFI [32]: 503 MFI
MFI [15]: 1970 MFI
MFI [25]: 81 MFI
MFI [26]: 574 MFI
B3: antibody 55-31 (antibody, mouse IgM, V domains shown)
VH: QVQLQQPGAELVKPGTSVKLSCKASGYNFTSYWINWVKLRPGQGLEWIGDIYPGSGSTNYNEKFKSKATLTVDTSSSTAYMQLSSLASEDSALYYCARSAYRYDWFAYWGQGTLVTVSA
VL: DIQMTQSPASLSVSVGETVTITCRASENIYSNLAWYQQKQGKSPQLLVYAATNLADGVPSRFSGSGSGTQYSLKINSLQSEDFGSYYCQHFWGTPYTFGGGTKLEIKR
notes: as for B2
